The values below come from patent US6303749A, “Agouti and agouti-related peptide analogs” (Amgen Inc., priority 1999, dated 2001).

Where “and” joins values, the source holds several entries; their conditions need not be identical. Identical values can stand only once. Bridge positions count the residues as written; N and C are the ends. Square brackets hold non-standard residues; d marks the D form. Ends that are not written are not given here. Nle = CCCC[C@H](N)C(=O)O; Abu = CC[C@H](N)C(=O)O

In assay [1] the target is T1, human melanocortin-4 (MC-4) receptors (Homo sapiens, UniProt P32245).
T1 construct: expressed in transfected cells; membrane fraction used
T1 sequence (P32245 whole entry): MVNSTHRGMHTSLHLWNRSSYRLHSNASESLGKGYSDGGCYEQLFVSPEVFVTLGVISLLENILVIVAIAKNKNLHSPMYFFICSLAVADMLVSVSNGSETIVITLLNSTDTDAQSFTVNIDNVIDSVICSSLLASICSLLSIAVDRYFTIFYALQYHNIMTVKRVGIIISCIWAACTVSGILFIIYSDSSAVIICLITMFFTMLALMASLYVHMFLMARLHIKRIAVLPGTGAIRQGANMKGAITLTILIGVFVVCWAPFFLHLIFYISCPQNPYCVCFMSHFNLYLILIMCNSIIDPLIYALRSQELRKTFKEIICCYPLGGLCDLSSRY
It counts as binding. To be noted: HEK 293 cell membranes; about […] 125I-NDP-α-MSH; 180 minutes at 25 C; read-out: hMC4 IC50 (nM) 125I NDP-MSH.

Assay [2] is classed as binding, human. The note with it: Table II; HEK 293 cell membranes; 125I-AGRP 1.10 nM; read-out: hMC3 IC50 (nM) 125I-AGRP.
The target of assay [3] is T2, human melanocortin-3 (MC-3) receptors (Homo sapiens, UniProt P41968).
T2 construct: expressed in transfected cells; membrane fraction used
T2 sequence (P41968 whole entry): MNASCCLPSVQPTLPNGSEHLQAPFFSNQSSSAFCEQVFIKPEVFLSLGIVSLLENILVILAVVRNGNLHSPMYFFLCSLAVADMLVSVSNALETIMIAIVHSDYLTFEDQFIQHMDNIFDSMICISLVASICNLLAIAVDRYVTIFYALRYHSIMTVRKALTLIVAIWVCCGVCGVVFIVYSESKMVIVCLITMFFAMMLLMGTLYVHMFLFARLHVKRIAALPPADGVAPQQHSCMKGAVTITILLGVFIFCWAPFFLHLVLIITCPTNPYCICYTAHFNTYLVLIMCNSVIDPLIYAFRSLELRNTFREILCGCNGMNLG
In words: Melanocortin receptor binding assay, 125I-NDP-alpha-MSH competition, MC-3. To be noted: HEK 293 cell membranes; about […] 125I-NDP-α-MSH; 180 minutes at 25 C; read-out: hMC3 IC50 (nM) 125I NDP-MSH.

The target in assay [4] is T2, human melanocortin-3 (MC-3) receptors. In words: Melanocortin receptor binding assay, 125I-AGRP competition, MC-3. The note with it: Table II; HEK 293 cell membranes; 125I-AGRP 1.10 nM; read-out: hMC3 IC50 (nM) 125I-AGRP.
Assay [5] deals with T3, human melanocortin-3 (MC-3) receptor (human, UniProt P41968). In words: displacement of 125I-AGRP, membranes of HEK 293 cells with hMC3 (value column 4). Background: Displacement assays read how much labelled ligand stays bound in the presence of the test substance.
In assay [6] the target is T3, human melanocortin-3 (MC-3) receptor. In words: displacement of 125I-NDP-alpha-MSH, membranes of HEK 293 cells with hMC3 (value column 3).
In assay [7] the target is T4, human melanocortin-4 (MC-4) receptor (human, UniProt P32245). In words: displacement of 125I-NDP-alpha-MSH, membranes of HEK 293 cells with hMC4 (value column 1).
T4 sequence (P32245 whole entry): as the sequence (P32245 whole entry) above
Assay [8] addresses T4, human melanocortin-4 (MC-4) receptor. In words: displacement of 125I-AGRP, membranes of HEK 293 cells with hMC4 (value column 2; its head prints hMC3).

By IC50 is commonly meant the concentration that inhibits the measured activity by half. As to “Cys-Abu-Asp-Pro-Abu-Ala-Thr-Abu-Tyr-Cys-Arg-Phe-Phe-Asn-Ala-Phe-Cys-Tyr-Cys-Arg-Lys-Leu-Gly-Thr-Ala-Met-Asn-Pro-Abu-Ser-Arg-Thr [SEQ ID NO:10]”, the IC50 was found to be 102 nM in assay [1], 15 nM in assay [2], 500 nM in assay [3] and 147 nM in assay [4].

Consider “HESCLGQQVPC[Abu]DP[Abu]ATCY[Abu]RFFNAF[Abu]YCRKL (cysteine pairing not given here) [SEQ ID NO:5]”, for which the IC50 in assay [1] is above 1000 nM; in assay [2], 377 nM; in assay [3], above 1000 nM; in assay [4] it was above 1000 nM.

Turning to “C[Abu]DPCAT[Abu]YCRFFNAFCYCRKLGTAMNPCSRT (cysteine pairing not given here) [SEQ ID NO:8]”, the IC50 in assay [4] was determined as 400 nM.

In the case of “[Abu][Abu]DPCAS[Abu]QCRFFRSACS[Abu]RVLSLNC (cysteine pairing not given here) [SEQ ID NO:17]”, the IC50 in assay [1], in assay [2], in assay [3] and in assay [4] was above 1000 nM throughout.

In the case of “RNS[Abu]KPPAPAC[Abu]DP[Abu]AS[Abu]QCRFFRSACSCRVL (cysteine pairing not given here) [SEQ ID NO:15]”, the IC50 in assay [1] is 800 nM; in assay [2] it was 45 nM; in assay [3] it was above 1000 nM; in assay [4], above 1000 nM.

In the case of “C[Abu]DPCAT[Abu]Y[Abu]RFFNAF[Abu]YCRKLGTAMNPCSRT (cysteine pairing not given here) [SEQ ID NO:11]”, the concentration for half-maximal inhibition (IC50) is above 1000 nM in assay [1], 800 nM in assay [2], above 1000 nM in assay [3] and above 1000 nM in assay [4].

As for “HESCLGQQVP[Abu][Abu]DP[Abu]ATCYCRFFNAFCY[Abu]RKL (cysteine pairing not given here) [SEQ ID NO:3]”, the IC50 in assay [1] was 900 nM; in assay [2], 160 nM; in assay [3] it was above 1000 nM; in assay [4], above 1000 nM.

Turning to “HESCLGQQVPC[Abu]DP[Abu]ATCYCRFFNAFCYCRKL (cysteine pairing not given here) [SEQ ID NO:2]”, the IC50 in assay [1] is 200 nM; in assay [3], above 1000 nM; in assay [4], 850 nM.

“His-Glu-Ser-Abu-Leu-Gly-Gln-Gln-Val-Pro-Cys-Abu-Asp-Pro-Abu-Ala-Thr-Abu-Tyr-Cys-Arg-Phe-Phe-Asn-Ala-Phe-Cys-Tyr-Cys-Arg-Lys-Leu [SEQ ID NO:4]”: the IC50 in assay [1] came to 100 nM; in assay [3], 850 nM; in assay [4], 90 nM.

On to RNS[Abu]KPPAPAC[Abu]DP[Abu]AS[Abu]QCRFFRSACSCRVL (disulfide (positions not given here)) [peptide of SEQ ID NO:15], for which the IC50 in assay [5] is above 1000 nM; in assay [6], above 1000 nM; in assay [7] it was 800 nM; in assay [8], 45 nM.

B1: peptide of SEQ ID NO:14 (peptide)
peptide: RNSCKPPAPA[Abu][Abu]DP[Abu]ASCQCRFFRSACS[Abu]RVL
modifications: disulfide (positions not given here); also: oxidised to disulfides, pairs not given here
Consider B1, for which the IC50 in assay [5] was above 1000 nM; in assay [6], above 1000 nM; in assay [7] it was above 1000 nM; in assay [8] it was 900 nM.

In the case of Ac-[Nle]H[dF]RWK [NDP-alpha-MSH], the IC50 is 0.9 nM and 0.7 nM in assay [6]; 8 nM in assay [7].

On to AC[Abu]DP[Abu]AS[Abu]QCRFFRSACSCRVL (disulfide (positions not given here)) [peptide of SEQ ID NO:16], for which the IC50 is above 1000 nM in assay [5], above 1000 nM in assay [6], above 1000 nM in assay [7] and 280 nM in assay [8].

For the molecule HESCLGQQVPC[Abu]DP[Abu]ATCYCRFFNAFCYCRKL (disulfide (positions not given here)) [peptide of SEQ ID NO:2], the IC50 is 850 nM in assay [5], above 1000 nM in assay [6], 200 nM in assay [7] and 50 nM in assay [8].

On to MRCVRLHESCLGQQVPCCDPCATCYCRFFNAFCYCRKLGTAMNPCSRT [Md65-AGRP], for which, in assay [6], the IC50 worked out at 2 nM.

B2: Mkd5-AGRP (ligand)
chain: APMEGIRRPDQALLPELPGLGLRAPLKKTTAEQAEEDLLQEAQALAEVLDLQDREPRSSRRCVRLHESCLGQQVPCCDPCATCYCRFFNAFCYCRKLGTAMNPCSRT
With B2, the IC50 in assay [5] was 0.7 nM; in assay [6] it was 20 nM and 10 nM.

B3: peptide of SEQ ID NO:11 (peptide)
peptide: C[Abu]DPCAT[Abu]Y[Abu]RFFNAF[Abu]YCRKLGTAMNPCSRT
modifications: disulfide (positions not given here); also: oxidised to disulfides, pairs not given here
On to B3, for which the IC50 in assay [5] was above 1000 nM; in assay [6], above 1000 nM; in assay [7], above 1000 nM; in assay [8], 800 nM.

Turning to CRFFNAFC (disulfide 1-8 (inferred)) [peptide of SEQ ID NO:6], the IC50 in assay [5], in assay [6] and in assay [7] was above 1000 nM throughout.

B4: peptide of SEQ ID NO:17 (peptide)
peptide: [Abu][Abu]DPCAS[Abu]QCRFFRSACS[Abu]RVLSLNC
modifications: disulfide (positions not given here); also: oxidised to disulfides, pairs not given here
For B4, the IC50 in assay [5], in assay [6], in assay [7] and in assay [8] was above 1000 nM each time.

B5: peptide of SEQ ID NO:18 (peptide)
peptide: C[Abu]DPCAS[Abu]Q[Abu]RFFRSA[Abu]SCRVLSLNC
modifications: disulfide (positions not given here); also: oxidised to disulfides, pairs not given here
In the case of B5, the IC50 in assay [5], in assay [6], in assay [7] and in assay [8] was above 1000 nM each time.

As for HESCLGQQVPC[Abu]DP[Abu]ATCY[Abu]RFFNAF[Abu]YCRKL (disulfide (positions not given here)) [peptide of SEQ ID NO:5], the IC50 was above 1000 nM in assay [5], above 1000 nM in assay [6], above 1000 nM in assay [7] and 377 nM in assay [8].

In the case of CRFFGSAC (disulfide 1-8 (inferred)) [peptide of SEQ ID NO:7], the IC50 in assay [5], in assay [6] and in assay [7] was above 1000 nM throughout.

B6: peptide of SEQ ID NO:13 (peptide)
peptide: RNSCKPPAPAC[Abu]DP[Abu]ASCQCRFFRSACSCRVL
modifications: disulfide (positions not given here); not fully specified (bridges); printed as Arg-Asn-Ser-Cys-Lys-Pro-Pro-Ala-Pro-Ala-Cys-Abu-Asp-Pro-Abu-Ala-Ser-Cys-Gln-Cys-Arg-Phe-Phe-Arg-Ser-Ala-Cys-Ser-Cys-Arg-Val-Leu; also: three disulfides, pairing not given here
B6: the IC50 in assay [5] is above 1000 nM; in assay [6] it was above 1000 nM; in assay [7], 1000 nM; in assay [8], 60 nM.

For the molecule HESCLGQQVP[Abu][Abu]DP[Abu]ATCYCRFFNAFCY[Abu]RKL (disulfide (positions not given here)) [peptide of SEQ ID NO:3], the IC50 was above 1000 nM in assay [5], above 1000 nM in assay [6], 900 nM in assay [7] and 160 nM in assay [8].

Take HES[Abu]LGQQVPC[Abu]DP[Abu]AT[Abu]YCRFFNAFCYCRKL (disulfide (positions not given here)) [peptide of SEQ ID NO:4]: the IC50 in assay [5] amounted to 90 nM; in assay [6], 850 nM; in assay [7] it was 100 nM.

B7: peptide of SEQ ID NO:9 (peptide)
peptide: [Abu][Abu]DPCAT[Abu]YCRFFNAFCY[Abu]RKLGTAMNPCSRT
modifications: disulfide (positions not given here); not fully specified (bridges); also: disulfide pairing not given here
With B7, the IC50 in assay [5] was 700 nM; in assay [6], above 1000 nM; in assay [7] it was 600 nM; in assay [8], 73 nM.
